Measured values reported in the nanobody polyreactivity screen of Harvey et al. (2022).

Assay: yeast display, Sf9 membrane polyspecificity reagent, FACS + sequencing; frameworks hold sequencing errors
Summary of the method: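 A synthetic nanobody library was expressed on Saccharomyces cerevisiae BJ5465 by galactose induction for 36–48 hours. The library was stained for 1 hour at 4 °C with 10% biotinylated, detergent-solubilized Sf9 membrane reagent and enriched with streptavidin microbeads before FACS. Low and high (top ~1%) gates were set on anti-HA fluorescence for expression and streptavidin fluorescence for reagent binding, and each polyreactivity label reflects the gate of origin.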

Sequence	polyreactivity (PSR sort gate)
QVQLVESGGGLVQAGGSLRLSCADSGSTFVNYAMGWYRQAPGKERELVAAISSTGGSTYYADSVKGRFTISRDNAKNTVYLQMNSLKPEDTAVYYCAAYRYFKMGYWGQGTQVTVSS	high polyreactivity
QVQLVESGGGLVQAGGSLRLSCADSGFTFSWYTMGWYRQAPGKERELVASITVSGGSTYYADSVKGRFTISRDNAKNTVYLQMNSLKPEDTAVYYCNAQDPFTYYSSSPTYDYWGQGTQVTVSS	low polyreactivity
QVQLVESGGGLVLPGGRLRLSCAASGGTFSTYAIASYRQGPGKERELVAAISSRGTSTYYADSVKGRFTISRDNAKNSVYLQMNSLKPEDTAVYYCAAVGVKQFLGGNPFDYWGQGTQVTVSS	high polyreactivity
QVQLLDSGGGLVQAGGSLRLSCAASGSIFGRNAMVWYRQAPGKEREFVATITSRGGRTYYADSVKGRFTISRDNAKNTVYLQMNSLKPEDTAVYYCAADTYISTLKKYRLGDYWGQGTQVTVSS	low polyreactivity
QVQLVESGGGLVQAGGSLRLSCAASGRTFGIYAMGWYRQAPGKERELVATISWRGGSTYYADSVKGRFTISRDNAKNTVYLQMNSLKPEDTAVYYCAAGYYPYWGQGTQVTVSS	low polyreactivity
QVQVVESGAGLVQAGGILRLRCASSGFILYPNAMGWYRQAPGKERELVAAITESDGITYYADSVKGRFTISRDNAKNTVYLQMNSLKPEDTAVYYCNTGFSYTYDYWGQGTQVTVSS	low polyreactivity
QVQLVESGGGLVQAGGSLRLSCAASGSTFDRYGMGWYRQAPGKERELVARITSSGASTYYADSVKGRFTISRDNAMNTVYLQMNSQKPEDTAVYYCAADEGYPGDGDYWGQGTQVTVSS	low polyreactivity
QVQLVESGGGLVQAGGSLSLSCAASGSIFFVNAMGWYRQAPGKERELVAAISRSGGRTYYADSVKGRFTISRDNAKNTVYFQMNSLKPEDTAVYYCAAEYNPGSYFTYDYWGQGTQVTVSS	low polyreactivity
QVQLVESGGGLVQAGGSLRLSCAASGFIFYDYDMGWYRPAPGKERELVAAITYSGGSTYYADSVKGRFTISRDNAKNTVYLQMNSLKPEDTAVYYCAAVKSRYAEAVDYYYWGQGTQVTVSS	low polyreactivity
QVQLVESGGGLVQAGGSLRLSCAASGSTFYLYAMGWYRQAPGKERELVAAISYSDGSTYYADSVKGRFTISRDNAKNTVYLQMNSMKPEDTAVYYCAAQHYVRSSIPGFIYYYWGQGTQVNVSS	high polyreactivity
QVQLVESGGGLVQAGGSLRLSCAASGSTFRANAMGWYRQAPGKERELVAAISWSGGRTYYADSVKGRFTISRDNAKNTVYLQMNSLKPEDTAVYYCAAVTTQYIYSVPYYYWGQGTQVTVSS	high polyreactivity
QVQIVESGGGLVQAGGRLRLSFSASGIIFTGNAMGWYRQAPGKERELVAAITSGDTTNYADSVKGRFTISRDNAKNTVYLLMNSLKPEDTAVYYCAKELQVRQAGDYWGQGTQVTVSS	low polyreactivity
QVQLVESGGGLVQAGGSLRLSCAASGSIFSINAMGWYRQAPGKERELVAAISWSGGSTYYADSVKGRFTISRDNAKNTVYLQMNSLKPEDTAVYYCAASYWDTEPGYREYDYWGQGTQVTVSS	low polyreactivity
QVQHVESGGGLVQAGGSLRLSCAASGFTFRRYAMGWYRQAPGKERELVAAISINGGSTYYADSVKGRFTISRDNAMNTVYLQMNSLKPEDTAVYYCNKGSVRGEYDYWGQGTLVTVSS	high polyreactivity
QVQLVESGGGLVQAGGSLRLSCAASGGIFYTYALGWYRQAPGKERELVAGINWSGSSTYYADSVKGRFTISRDNAKNTVYLQMNSLKPEDTAVYYCAARSYSYSTGDYWGQGTQVTVSS	low polyreactivity
QVQLVESGGGLVQAGGSLRLRCAASGSIFWYYTMGWYRQAPGIERELVATLTRSGSRTYDADSVKGRCTISRDNAKNTVYLQMNSLKPEDTAVYYCAKDYGPWTYDYWGQGTQVTVSS	low polyreactivity
QDQIVESGGGLVQAGGSLRLSCAASGSIIWGNALGWYSQAPGKERELVAAISWGGGRTYYADSVKGRFTLSRDNAKNTVYLQMNSLKPEDTAVYYCNTRYPYVVSTGYDYWGQGTQVTVSS	high polyreactivity
QVQLVESGGGLVQAGGSLRLSCAASGSTFSWYAMGWYRQAPGKERELVAAITRSGGRTYYADSVKGRFTISRDNAKNTVYLQMNSLKPEDTAVYYCAAVQYKSPHNYWGQGTQVTVSS	high polyreactivity
QVQLVESGGGLVQAGGSLRLSCAASGSTLVTNAMGWYRQAPGKERELVAAITFSGGTTYYADSVKGLFTISRDNAKNTVYLQMNSLKPEDTAVYYCAAEIWLEYVGYDYWGQGTQVTLSS	high polyreactivity
QVQLLESGGGLVHAGGSLRLSCAASGSIFPYYAMGWYRQAPGKERELVAAISDSGDSTYYADSVKGRFTISRDNAKNTVYLQMNSLKPEDTAVYYCNADSRTDYHPHGTMVGPDREYWGQGTQVTVSS	low polyreactivity
QVQLVESGGGLVQAGGSLRLSCAASGRIFARYAMGWYRPAPGKERELVAAITKSVGSTYYADSVKGRFTISRDNAKYTVYLQMNRLKPEDTAVYYCNAVARGYGYDYWGQGTQVTVSS	high polyreactivity
QVQLVESGGGLVQAGGSLRLSCAASGFIFFINDMGWYRQAPGTERELVAAISWSGGSTYYADSVKGRFTISRDNAKNTVYLQMNSLKPEDTAVYYCNTDVPTAQYDYWGQGTQVTVSS	low polyreactivity

Sequence	polyreactivity (PSR sort gate)
QGQLVESGGGLVQAGGSLRLSCAASGSTFRNYAMGWYRQAPGKERELVAAISGSGGRTNYADSVKGRFTISRDNAKNTVYLQMNSLKPEDTAVYYCNARFPDWALSEISLSTTYGYWGQGTQVTVSS	low polyreactivity
QVQLVESGGGLVQAGGSLRLSCAASGFIFRRYVMGWYRQAPGKERELVAAISNGGGRTYYADSVKGRFTISRDNAKNTVYLQMNSQKPEDTAVYYCAAYPRGPLAPDYDYWGQGTQVSVSS	high polyreactivity
QVQLVESGGGLVQAGGSLRLSCAASGSTFVNYAMGWYRQAPGKERELVAAITRSGGNTYYADSVKGRFTISRDNAKNTVYLQMNSLKPEDTAVYDCAASFKQDIWYYYWGQGTQVTVSS	high polyreactivity
QVQLVESGGGLVQAGGSLRLSCAPSGRTFNPYALGWYRPAPGKEREFVYADSVKGRFTISRDNAKNTVYLQMNSLKPEDTAVYYCAADVYPDTLHPYNYDYWGQGTQVTLSS	low polyreactivity
QVQLVESGGGLVQAGGSLRLSCAASGFILQGYAMGWYRQAPGKERELVATITTSSRTYYADSVKGRFTISRDNAKNTVYLQMNRLKPEDTAVYYCDKSVYPYGYYYGQMDYWGQGTQVTVSS	high polyreactivity
QVQLVESGGGLVQAGGSLRLSCAASGSIFSRYTRGWYRQAPGKEWELVASISRRGGRTYYADSVKGRFTISRDNAKNTVYLQMNSPKPEDTAVYYCNARGHGSAVGPFTRVNSWGQGTQVTVSS	high polyreactivity
QVQLVESGGRLVQAGGSLRLSCAASGSIFAVNTMGWYRQAPGKERELVAAISQRGSSTYYADSVKGRFTISRDNAKNTVYLQMNSLKPEDTAVYYCAKRFIYGRYNYWGQGTQVTVSS	high polyreactivity
QVQLVESGGGLVQAGGSLRLSCAASGIIFKSYTMGWYRQAPGKERELVAAINSSGDRTYYADSVKGRFTISRDNAKNTVYLQMNSLKPEDTAVDYCAAAPVKKSRFRYDYWGQGTQVTVSS	high polyreactivity
QVQLVESGGGLVQAGGSLRLSCAASGFTFFVNTMGWYRQAPGKERELVAAISYDGGSTTYADSVKGRFTISRDNAKNTVYLQMNSLKPEDTAVYYCAAEYWAPFDYGTNSGYEYWGQGTQVTVSS	low polyreactivity
QVQLVESGGGLVQAGGSLRLSCAASGSTFEYYAMGWYRQAPGKERELVAAITRRGGSTYYADSVKGRFTISRDNAKNTVYLQMNSLKPEDTAVYYCAAVPTQKSPRTHDYWGQGTQVTVSS	low polyreactivity
QVQLVESGGGLVQAGGSLRLSCAASGPMFTSNAMGWYRQAPGKERELVAAISRRGTRTYYADSVKGRFTISRDIAKHSVYLQMNSLKPEDTAVYYCAATTGEQEDYWGQGTQVTVSS	high polyreactivity
QVQLVESGGGLVQAGGSLRLSCAASGRTFALYAMGWYRHAPGKERELVASISWRGGSTYYADSVKGRFTISRDNAKNTVYLQMNSLKPEDTAVYYCAADTWSYGPLNYRLEYWGQGTQVTVSS	low polyreactivity
QVQLVESGGGLVQAGGSLRLSWAASGSIFYQNPMGSYRQAPGKERELVAAISSAGSTYYADSVKGRFTISRDNAKNTVYLQMNSLKPADTAVYYCAADDLGWWFYSGGEDYYYWGQATQVTVSS	low polyreactivity
QVQLVESGGGLVQAGGSLRLSCAASGSTHGYAMGWYRQAPGKERELVAAISLNTGSTYYADSVKGRFTIARDNAKNTVYFQMNSLKPEYTAVYYCNADDYTYATYEYDYWGQGTLVTVSS	low polyreactivity
QVQLVESGGGLVQAGGSLRLSCAASGSIFNPNAMGWYRQAPGKEREVVAAIDSGGTTDYADSVKGRFTISRDNAKNTVYLQINSLKPEDTAVYYCNADRTVTSSSFTDYDYWGQGTQVTVSS	high polyreactivity
QVQLVESGGGLVQAGGSLRLSCAASGSIFTGYSMGWYRQAPGKERELVAAISNSGTSTYYADSVKGRFTISRDNAKNTVYLQMNCLKPDDTAVYYCNRYHRLRVVPSRYVKYDYWGQGTQVTVSS	low polyreactivity
QVQLVESGGGLVQAGGSLRLSCAASGSILNPNAMGWSRQAPGKERELVASISKSGGSTYYADSVKGRFTISRDNAKNTVYLQMNSLKPEDTAVYYCAAAFVSVRERYGYWGQGTQVTVSS	high polyreactivity
QVQLLETGGGLVQAGGSLRLSCAASGIPFDIYTMGWYIQAPGKERELVAASSYSGGTTYYADSVKGRFTISRDNAKNTVYLQMISLKPEDTAVYYCAAYEGTYFTEVDYWGQGTQVTVSS	low polyreactivity
QVQIVESGGGLDQAGGSLRLSCAASGSTFVLNPMGWYRQAPGKERGMVAAISSGGRTYYADSVKGRFTISRDNAKNTVYLQMNSLKPEDTAVYYCAANPYRGGHGTLFGYWGQGSQVTVSS	high polyreactivity
QVQLVESGGGLVQAGGSLRLSCAASGNTFRIYTMGWYRQSPGKEMELVATITRRGGSTYYADSVKGRFTISRDYAKNTVYLQMKSLKPEDTAVYYCAATTKLPRGHYWNYYWGQGTQVTVSS	high polyreactivity
QVQLVESGGGLVQAGGSLRLSCAASGFTFSPNAMGWSTQAPGQEREVVAAITSGGNTYADSVKGRFTISRDNAKNSVYFQMNSLKPDDNAVYYCAKGEGYWYIARYLPVGYGYWGQGTQVTVSS	low polyreactivity
